Measurements reported in patent publication US20250262210A1 (TRUSTEES OF COLUMBIA UNIVERSITY IN THE CITY OF NEW YORK, published 2025).

Assays:
Assay in all cases: IP/MS, LZTR1 R810W-FLAG, U87
[1] = target: T1, AMBRA1 (human, UniProt Q9C0C7 1-1298, limits assumed)
T1 sequence (looked up): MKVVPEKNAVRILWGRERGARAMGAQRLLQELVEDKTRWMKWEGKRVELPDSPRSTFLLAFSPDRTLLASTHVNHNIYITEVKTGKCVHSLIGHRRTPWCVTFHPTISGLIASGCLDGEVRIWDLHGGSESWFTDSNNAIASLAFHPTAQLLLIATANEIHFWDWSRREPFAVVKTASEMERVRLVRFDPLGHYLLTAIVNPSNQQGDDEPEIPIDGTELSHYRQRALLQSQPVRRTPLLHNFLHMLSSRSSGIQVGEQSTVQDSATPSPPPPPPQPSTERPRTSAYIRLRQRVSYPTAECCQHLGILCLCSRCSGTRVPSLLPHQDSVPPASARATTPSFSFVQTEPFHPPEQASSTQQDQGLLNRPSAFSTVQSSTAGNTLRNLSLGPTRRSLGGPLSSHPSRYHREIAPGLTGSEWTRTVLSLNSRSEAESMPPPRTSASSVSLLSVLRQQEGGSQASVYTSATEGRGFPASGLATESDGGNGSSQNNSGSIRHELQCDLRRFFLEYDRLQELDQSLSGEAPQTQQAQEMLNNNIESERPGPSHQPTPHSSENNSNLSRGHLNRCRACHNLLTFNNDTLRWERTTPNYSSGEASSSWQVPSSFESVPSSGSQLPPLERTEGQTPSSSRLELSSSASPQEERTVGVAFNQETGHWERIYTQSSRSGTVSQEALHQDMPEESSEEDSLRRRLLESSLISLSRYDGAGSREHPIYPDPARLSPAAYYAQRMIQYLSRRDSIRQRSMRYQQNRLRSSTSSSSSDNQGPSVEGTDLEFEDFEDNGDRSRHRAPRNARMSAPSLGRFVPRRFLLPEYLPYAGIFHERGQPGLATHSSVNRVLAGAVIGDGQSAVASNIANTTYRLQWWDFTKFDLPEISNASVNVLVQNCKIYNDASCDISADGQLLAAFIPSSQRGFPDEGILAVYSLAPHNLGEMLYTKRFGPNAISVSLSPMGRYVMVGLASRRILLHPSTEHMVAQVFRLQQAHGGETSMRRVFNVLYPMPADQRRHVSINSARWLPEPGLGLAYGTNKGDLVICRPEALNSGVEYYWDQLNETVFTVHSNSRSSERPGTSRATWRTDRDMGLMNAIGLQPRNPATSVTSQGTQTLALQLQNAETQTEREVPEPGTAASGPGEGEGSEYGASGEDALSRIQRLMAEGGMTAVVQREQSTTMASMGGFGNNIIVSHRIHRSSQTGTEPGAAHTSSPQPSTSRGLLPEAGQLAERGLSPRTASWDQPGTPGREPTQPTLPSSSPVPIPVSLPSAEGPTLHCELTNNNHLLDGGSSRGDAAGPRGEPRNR
Summary of the method: (§1)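 Gel slices were reduced with 5 mM DTT, alkylated with 11 mM IAA and digested overnight at 37° C. with trypsin. Peptides were analysed on an Orbitrap Fusion Tribrid by LC-MS/MS.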

[2] = target: POLR1A (human, UniProt O95602 1-1720)
POLR1A, sequence (O95602 whole entry): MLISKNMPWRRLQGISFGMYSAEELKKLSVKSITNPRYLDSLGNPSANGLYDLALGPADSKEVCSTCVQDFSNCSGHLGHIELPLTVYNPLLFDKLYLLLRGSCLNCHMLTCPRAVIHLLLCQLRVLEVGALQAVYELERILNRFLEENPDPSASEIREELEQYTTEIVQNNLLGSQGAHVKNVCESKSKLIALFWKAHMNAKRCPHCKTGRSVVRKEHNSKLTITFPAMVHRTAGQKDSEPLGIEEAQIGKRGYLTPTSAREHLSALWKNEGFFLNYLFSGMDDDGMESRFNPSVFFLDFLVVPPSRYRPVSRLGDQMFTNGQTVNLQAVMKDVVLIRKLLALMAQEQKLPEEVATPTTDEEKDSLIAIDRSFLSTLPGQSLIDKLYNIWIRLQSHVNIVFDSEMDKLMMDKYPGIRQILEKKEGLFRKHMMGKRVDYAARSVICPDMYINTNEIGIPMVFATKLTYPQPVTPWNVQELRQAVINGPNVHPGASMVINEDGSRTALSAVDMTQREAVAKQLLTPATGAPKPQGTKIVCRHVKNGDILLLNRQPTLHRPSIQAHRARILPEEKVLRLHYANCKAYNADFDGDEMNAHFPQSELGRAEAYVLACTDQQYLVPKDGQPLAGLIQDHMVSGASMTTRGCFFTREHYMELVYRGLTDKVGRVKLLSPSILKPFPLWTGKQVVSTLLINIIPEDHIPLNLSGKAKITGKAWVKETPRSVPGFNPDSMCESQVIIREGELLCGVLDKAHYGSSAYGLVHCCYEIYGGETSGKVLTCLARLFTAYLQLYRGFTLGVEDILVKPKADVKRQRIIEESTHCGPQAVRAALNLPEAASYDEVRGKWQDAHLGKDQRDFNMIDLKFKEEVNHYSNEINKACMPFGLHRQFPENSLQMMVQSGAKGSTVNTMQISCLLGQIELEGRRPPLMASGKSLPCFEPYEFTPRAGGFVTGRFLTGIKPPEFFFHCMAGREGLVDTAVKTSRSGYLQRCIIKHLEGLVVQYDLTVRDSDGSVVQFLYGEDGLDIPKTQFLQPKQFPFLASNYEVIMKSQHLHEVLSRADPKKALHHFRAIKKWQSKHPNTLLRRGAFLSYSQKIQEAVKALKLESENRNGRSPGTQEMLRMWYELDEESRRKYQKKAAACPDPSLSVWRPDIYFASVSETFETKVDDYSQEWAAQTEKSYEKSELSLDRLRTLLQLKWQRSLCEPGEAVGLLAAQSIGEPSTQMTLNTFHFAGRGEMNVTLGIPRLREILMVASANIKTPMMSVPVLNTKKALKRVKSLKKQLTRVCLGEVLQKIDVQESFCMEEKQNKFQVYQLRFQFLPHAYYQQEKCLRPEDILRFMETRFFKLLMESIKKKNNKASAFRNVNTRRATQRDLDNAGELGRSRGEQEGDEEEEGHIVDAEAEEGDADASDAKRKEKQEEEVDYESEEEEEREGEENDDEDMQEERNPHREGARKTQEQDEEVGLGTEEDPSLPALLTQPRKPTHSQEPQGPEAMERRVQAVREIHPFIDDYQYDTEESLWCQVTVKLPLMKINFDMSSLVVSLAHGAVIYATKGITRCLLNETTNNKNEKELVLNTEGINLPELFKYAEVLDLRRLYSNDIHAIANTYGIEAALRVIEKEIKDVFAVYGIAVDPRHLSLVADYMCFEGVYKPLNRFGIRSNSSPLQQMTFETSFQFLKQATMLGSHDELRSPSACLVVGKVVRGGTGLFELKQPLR
Summary of the method: as §1

[3] = target: TRIO (human, UniProt O75962 1-3097, limits assumed)
Summary of the method: as §1

[4] = target: IFT172 (human, UniProt Q9UG01 1-1749, limits assumed)
IFT172, sequence (Q9UG01 whole entry): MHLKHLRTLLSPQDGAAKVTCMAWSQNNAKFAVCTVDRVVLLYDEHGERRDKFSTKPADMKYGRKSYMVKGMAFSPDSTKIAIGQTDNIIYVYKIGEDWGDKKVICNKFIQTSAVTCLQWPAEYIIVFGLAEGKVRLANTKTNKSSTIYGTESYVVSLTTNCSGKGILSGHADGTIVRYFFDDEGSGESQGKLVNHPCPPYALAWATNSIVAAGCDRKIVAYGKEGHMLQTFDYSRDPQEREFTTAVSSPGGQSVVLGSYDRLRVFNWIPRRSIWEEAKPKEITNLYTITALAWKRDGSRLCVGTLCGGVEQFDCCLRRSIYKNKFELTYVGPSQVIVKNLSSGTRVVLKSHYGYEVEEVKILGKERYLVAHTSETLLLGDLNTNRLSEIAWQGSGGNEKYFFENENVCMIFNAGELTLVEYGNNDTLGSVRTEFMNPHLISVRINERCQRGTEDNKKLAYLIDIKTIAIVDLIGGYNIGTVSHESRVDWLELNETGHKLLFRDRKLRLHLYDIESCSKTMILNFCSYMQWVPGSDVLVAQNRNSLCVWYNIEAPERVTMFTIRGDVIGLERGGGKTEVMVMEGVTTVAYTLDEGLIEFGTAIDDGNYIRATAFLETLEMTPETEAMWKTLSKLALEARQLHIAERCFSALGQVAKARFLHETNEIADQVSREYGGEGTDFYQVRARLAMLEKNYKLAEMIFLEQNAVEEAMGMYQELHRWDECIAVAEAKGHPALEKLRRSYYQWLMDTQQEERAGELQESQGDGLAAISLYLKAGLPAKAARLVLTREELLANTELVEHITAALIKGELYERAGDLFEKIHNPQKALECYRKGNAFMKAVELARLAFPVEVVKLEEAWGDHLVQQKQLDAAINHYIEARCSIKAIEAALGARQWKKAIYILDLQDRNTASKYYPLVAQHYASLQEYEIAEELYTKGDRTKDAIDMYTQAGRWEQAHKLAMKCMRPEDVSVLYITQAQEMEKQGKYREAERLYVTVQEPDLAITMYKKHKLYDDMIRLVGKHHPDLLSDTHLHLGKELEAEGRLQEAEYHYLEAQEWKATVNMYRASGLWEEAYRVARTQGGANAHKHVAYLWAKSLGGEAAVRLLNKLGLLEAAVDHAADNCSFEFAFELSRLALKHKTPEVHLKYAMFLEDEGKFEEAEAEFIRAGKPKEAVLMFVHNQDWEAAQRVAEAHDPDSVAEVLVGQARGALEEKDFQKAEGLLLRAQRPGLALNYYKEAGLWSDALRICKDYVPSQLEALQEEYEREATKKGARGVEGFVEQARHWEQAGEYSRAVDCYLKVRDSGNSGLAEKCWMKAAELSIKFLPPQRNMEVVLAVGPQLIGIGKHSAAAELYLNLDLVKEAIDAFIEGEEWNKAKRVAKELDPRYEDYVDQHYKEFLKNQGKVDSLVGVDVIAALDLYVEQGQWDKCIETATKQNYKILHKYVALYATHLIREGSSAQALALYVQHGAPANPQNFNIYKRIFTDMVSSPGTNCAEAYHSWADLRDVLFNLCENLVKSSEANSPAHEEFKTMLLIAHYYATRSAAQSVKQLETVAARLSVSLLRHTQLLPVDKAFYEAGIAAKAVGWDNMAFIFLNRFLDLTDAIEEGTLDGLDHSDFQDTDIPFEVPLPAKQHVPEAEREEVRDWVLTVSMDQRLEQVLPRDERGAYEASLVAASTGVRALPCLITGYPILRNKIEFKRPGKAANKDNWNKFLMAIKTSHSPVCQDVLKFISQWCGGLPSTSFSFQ
Summary of the method: as §1

Measured: binding result

B1: LZTR1 R810W-FLAG (other, human, UniProt Q8N653 1-840, looked up)
chain: MAGPGSTGGQIGAAALAGGARSKVAPSVDFDHSCSDSVEYLTLNFGPFETVHRWRRLPPCDEFVGARRSKHTVVAYKDAIYVFGGDNGKTMLNDLLRFDVKDCSWCRAFTTGTPPAPRYHHSAVVYGSSMFVFGGYTGDIYSNSNLKNKNDLFEYKFATGQWTEWKIEGRLPVARSAHGATVYSDKLWIFAGYDGNARLNDMWTIGLQDRELTCWEEVAQSGEIPPSCCNFPVAVCRDKMFVFSGQSGAKITNNLFQFEFKDKTWTRIPTEHLLRGSPPPPQRRYGHTMVAFDRHLYVFGGAADNTLPNELHCYDVDFQTWEVVQPSSDSEVGGAEVPERACASEEVPTLTYEERVGFKKSRDVFGLDFGTTSAKQPTQPASELPSGRLFHAAAVISDAMYIFGGTVDNNIRSGEMYRFQFSCYPKCTLHEDYGRLWESRQFCDVEFVLGEKEECVQGHVAIVTARSRWLRRKITQARERLAQKLEQEAAPVPREAPGVAAGGARPPLLHVAIREAEARPFEVLMQFLYTDKIKYPRKGHVEDVLLIMDVYKLALSFQLCRLEQLCRQYIEASVDLQNVLVVCESAARLQLSQLKEHCLNFVVKESHFNQVIMMKEFERLSSPLIVEIVRRKQQPPPRTPLDQPVDIGTSLIQDMKAYLEGAGAEFCDITLLLDGHPRPAHKAILAARSSYFEAMFRSFMPEDGQVNISIGEMVPSRQAFESMLRYIYYGEVNMPPEDSLYLFAAPYYYGFYNNRLQAYCKQNLEMNVTVQNVLQILEAADKTQALDMKRHCLHIIVHQFTKVSKLPTLWSLSQQLLLDIIDSLASHISDKQCAELGADI
notes: Stably expressed in U87 cells by lentivirus; also called LZTR1-FLAG-R810W; LZTR1 RW; not shown: FLAG tag
binds: all assays above
